molecular target: endogenous GLP-1 receptor of MIN 6 cells (mouse) (UniProt O35659); experiment: cell-based or functional assay

Point of comparison: “[Ser8]-GLP-1(7-35)-GAm(1-46)-NH2 (peptide)”, Insulin Secretion Capacity of GLP-1 Peptide Complex in MIN 6 Cells (% of control), at 1000 pM 18 % of control. Against it:
- [Ser8]-GLP-1(7-35)-GAm(38-44)-NH2 (peptide) — higher, 120 % of control
- [Ser8]-GLP-1(7-35)-GAm(37-44)-NH2 (peptide) — higher, 82 % of control
- [Ser8]-GLP-1(7-35)-GAm(38-42)-NH2 (peptide) — higher, 125 % of control
- [Ser8]-GLP-1(7-35)-GAm(28-44) (peptide) — higher, 139 % of control
- [Ser8]-GLP-1(7-35)-GAm(17-46)-NH2 (peptide) — higher, 39 % of control
- [Ser8]-GLP-1(7-35)-GAm(33-44)-NH2 (peptide) — higher, 118 % of control
- [Ser8]-GLP-1(7-35)-GAm(25-46)-NH2 (peptide) — higher, 104 % of control
- [Ser8]-GLP-1(7-35)-GAm(21-46)-NH2 (peptide) — higher, 45 % of control
- [Ser8]-GLP-1(7-35)-GAm(35-44)-NH2 (peptide) — higher, 115 % of control
- [Ser8]-GLP-1(7-35)-GAm(30-42)-NH2 (peptide) — higher, 85 % of control
- [Ser8]-GLP-1(7-35)-GAm(33-44) (peptide) — higher, 89 % of control
- [Ser8]-GLP-1(7-35)-GAm(32-44)-NH2 (peptide) — higher, 109 % of control
- [Ser8]-GLP-1(7-35)-GAm(22-46)-NH2 (peptide) — higher, 100 % of control
- [Ser8]-GLP-1(7-35)-GAm(37-44) (peptide) — higher, 98 % of control
- [Ser8]-GLP-1(7-35)-GAm(27-46)-NH2 (peptide) — higher, 106 % of control
- [Ser8]-GLP-1(7-35)-GAm(31-44)-NH2 (peptide) — higher, 83 % of control
- [Ser8]-GLP-1(7-35)-GAm(28-44)-NH2 (peptide) — higher, 105 % of control
- [Ser8]-GLP-1(7-35)-GAm(28-42)-NH2 (peptide) — higher, 105 % of control

Point of comparison: “[Ser8]-GLP-1(7-35)-GAm(38-42)-NH2 (peptide)”, Insulin Secretion Capacity of GLP-1 Peptide Complex in MIN 6 Cells (EC50 value) 500 pM. Against it:
- [Ser8]-GLP-1(7-35)-GAm(1-46)-NH2 (peptide) — higher, > 1000 pM
- [Ser8]-GLP-1(7-35)-GAm(17-46)-NH2 (peptide) — higher, > 1000 pM

molecular target: endogenous SSTR 5 of MIN 6 cells (mouse) (UniProt O08858); experiment: cell-based or functional assay
Sequence (O08858 whole entry): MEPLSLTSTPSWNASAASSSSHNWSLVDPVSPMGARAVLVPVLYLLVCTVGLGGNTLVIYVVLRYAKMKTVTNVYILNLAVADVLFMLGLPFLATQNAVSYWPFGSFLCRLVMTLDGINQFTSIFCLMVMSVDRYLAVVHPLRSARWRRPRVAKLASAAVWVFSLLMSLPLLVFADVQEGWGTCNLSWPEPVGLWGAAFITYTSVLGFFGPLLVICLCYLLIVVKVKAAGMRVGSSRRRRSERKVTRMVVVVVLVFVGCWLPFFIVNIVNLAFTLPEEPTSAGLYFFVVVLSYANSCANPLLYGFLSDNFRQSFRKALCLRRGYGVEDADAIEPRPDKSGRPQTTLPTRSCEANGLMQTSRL

For SRIF(1-14)-NH2 (peptide), the Suppressibility of Insulin Secretion in MIN 6 Cells, Suppression rate of insulin secretion (%) relative to native SRIF was 100%.

molecular target: endogenous VIP receptor of SUP-T1 cells (human); experiment: cell-based or functional assay

Point of comparison: VIP(1-28)-GAm(28-44)-NH2 (peptide), cAMP Productivity in SUP-T1 Cells, Activity Intensity (%) relative to native VIP 67%. Against it:
- VIP(1-28)-GAm(37-44)-NH2 (peptide) — higher, 81%
- VIP(1-28)-GAm(32-44)-NH2 (peptide) — higher, 85%

— patent US20130123460A1, “PEPTIDE FOR IMPROVING BIOSTABILITY OF BIOACTIVE SUBSTANCE, AND BIOACTIVE SUBSTANCE HAVING IMPROVED BIOSTABILITY” (priority 2010, published 2013)
